Each block holds one binder with its values, some of them ahead of it.
What was measured:
Details in all cases: partners not purified
[1] = biological target: T1, thiazide-sensitive sodium chloride cotransporter (NCC) (mouse (endogenous in mDCT15 cells and …, UniProt P59158 1-1002)); experiment: co-IP; mouse kidney cortex homogenates (RIPA buffer), anti-NCC antibody coupled to resin (Pierce Co-Immunoprecipitation Kit), eluate blotted for αENaC; mice on high salt (4%) chow treated with vehicle (25% DMSO in saline) or Aldo (4 ug/day, 10 d)
T1 construct: thiazide-sensitive sodium-chloride cotransporter (NCC), endogenous in mouse mDCT15 cells and mouse kidney cortex; Precipitated with an anti-NCC antibody coupled to resin (Pierce Co-Immunoprecipitation Kit); source: endogenous, mDCT15 whole cell lysate; endogenous, mouse kidney cortex homogenate
T1 sequence (looked up): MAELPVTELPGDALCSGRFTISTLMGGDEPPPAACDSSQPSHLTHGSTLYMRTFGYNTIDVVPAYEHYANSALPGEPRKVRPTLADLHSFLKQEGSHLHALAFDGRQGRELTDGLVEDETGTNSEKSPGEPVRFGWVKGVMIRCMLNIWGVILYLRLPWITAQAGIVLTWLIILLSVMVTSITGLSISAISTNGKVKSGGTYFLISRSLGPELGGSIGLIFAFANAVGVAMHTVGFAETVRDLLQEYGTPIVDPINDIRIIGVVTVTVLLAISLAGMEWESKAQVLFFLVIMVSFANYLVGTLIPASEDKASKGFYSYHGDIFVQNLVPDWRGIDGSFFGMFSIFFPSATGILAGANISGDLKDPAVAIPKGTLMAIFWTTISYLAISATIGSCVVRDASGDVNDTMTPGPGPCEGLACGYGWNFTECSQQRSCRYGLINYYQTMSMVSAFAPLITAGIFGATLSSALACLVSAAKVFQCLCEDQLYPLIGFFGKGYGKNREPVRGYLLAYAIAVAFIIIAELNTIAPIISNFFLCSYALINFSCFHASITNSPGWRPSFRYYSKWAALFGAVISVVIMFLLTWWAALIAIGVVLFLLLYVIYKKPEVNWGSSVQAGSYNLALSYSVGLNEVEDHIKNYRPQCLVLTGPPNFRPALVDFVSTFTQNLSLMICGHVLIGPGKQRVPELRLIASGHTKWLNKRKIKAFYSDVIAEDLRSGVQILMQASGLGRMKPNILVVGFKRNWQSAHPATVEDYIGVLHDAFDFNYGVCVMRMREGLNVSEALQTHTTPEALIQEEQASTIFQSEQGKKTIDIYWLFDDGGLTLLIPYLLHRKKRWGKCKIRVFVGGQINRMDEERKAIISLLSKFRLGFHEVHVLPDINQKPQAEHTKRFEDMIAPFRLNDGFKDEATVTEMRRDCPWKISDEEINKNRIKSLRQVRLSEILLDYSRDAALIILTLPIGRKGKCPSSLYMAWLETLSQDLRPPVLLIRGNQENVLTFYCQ

[2] = biological target: T1, thiazide-sensitive sodium chloride …; experiment: co-IP; mDCT15 whole cell lysates (about 800 ug protein per column), anti-NCC antibody coupled to resin (Pierce Co-Immunoprecipitation Kit), eluate blotted for αENaC; cells treated with vehicle (EtOH), Aldo (100 nM, 48 hrs), Aldo + SGK1 inhibitor (GSK690394, 6 uM, 60 min) or SGK1 inhibitor alone
[3] = biological target: T2, NCC-pBIND (full-length NCC fused to the GAL4 DNA-binding domain) (UniProt P59158 1-1002); experiment: two-hybrid; Checkmate mammalian two-hybrid in transiently transfected COS-7 cells; NCC-pBIND (GAL4 DNA-binding domain) with α- or γ-pACT (VP16) and pG5luc; firefly luciferase normalized to Renilla, fold change of negative control (empty pBIND + pACT); with or without co-transfected SGK1 or WNK4; read 48 hours after transfection
T2 construct: source: COS-7, transiently transfected, mammalian two-hybrid fusion
T2 sequence (looked up): T1 sequence (looked up)

fold change of αENaC co-precipitated with NCC, Aldo against vehicle [1]: 3.07 fold change/vehicle
fold change of αENaC co-precipitated with NCC, Aldo + SGK1 inhibitor against vehicle [2]: 1.55 fold change/vehicle
fold change of αENaC co-precipitated with NCC, Aldo against vehicle [2]: 2.05 fold change/vehicle
fold change of αENaC relative to NCC in the CoIP fractions, Aldo against vehicle [2]: 1.55 fold change/vehicle
B1: epithelial sodium channel alpha subunit (αENaC) (natural protein, UniProt Q61180 1-699, looked up)
chain: MLDHTRAPELNLDLDLDVSNSPKGSMKGNNFKEQDLCPPLPMQGLGKGDKREEQALGPEPSEPRQPTEEEEALIEFHRSYRELFQFFCNNTTIHGAIRLVCSKHNRMKTAFWAVLWLCTFGMMYWQFALLFEEYFSYPVSLNINLNSDKLVFPAVTVCTLNPYRYTEIKEDLEELDRITEQTLFDLYKYNSSYTRQAGGRRRSTRDLRGALPHPLQRLRTPPPPNPARSARSASSSVRDNNPQVDRKDWKIGFQLCNQNKSDCFYQTYSSGVDAVREWYRFHYINILSRLPDTSPALEEEALGSFIFTCRFNQAPCNQANYSQFHHPMYGNCYTFNNKNNSNLWMSSMPGVNNGLSLTLRTEQNDFIPLLSTVTGARVMVHGQDEPAFMDDGGFNVRPGVETSISMRKEALDSLGGNYGDCTENGSDVPVKNLYPSKYTQQVCIHSCFQENMIKKCGCAYIFYPKPKGVEFCDYLKQSSWGYCYYKLQAAFSLDSLGCFSKCRKPCSVTNYKLSAGYSRWPSVKSQDWIFEMLSLQNNYTINNKRNGVAKLNIFFKELNYKTNSESPSVTMVSLLSNLGSQWSLWFGSSVLSVVEMAELIFDLLVITLIMLLHRFRSRYWSPGRGARGAREVASTPASSFPSRFCPHPTSPPPSLPQQGTTPPLALTAPPPAYATLGPSASPLDSAVPGSSACAPAMAL
notes: epithelial sodium channel (ENaC) alpha subunit, endogenous in mouse mDCT15 cells and mouse kidney cortex; Detected by immunoblot with an αENaC antibody in the NCC precipitate; source: endogenous, mDCT15 whole cell lysate; endogenous, mouse kidney cortex homogenate

two-hybrid luciferase signal, fold of negative control [3]: 7.74 fold change of negative control
two-hybrid luciferase signal, fold of negative control, with SGK1 co-transfected [3]: 14.7 fold change of negative control
B2: α-pACT (full-length αENaC fused to the VP16 activation domain) (natural protein, UniProt Q61180 1-699, looked up)
chain: B1 chain
notes: epithelial sodium channel (ENaC) alpha subunit, full-length clone in pACT; source: COS-7, transiently transfected, mammalian two-hybrid fusion

two-hybrid luciferase signal, fold of negative control [3]: 4.33 fold change of negative control
B3: γ-pACT (full-length γENaC fused to the VP16 activation domain) (natural protein, UniProt Q9WU39 1-655, looked up)
chain: MAPGEKIKAKIKKNLPVRGPQAPTIKDLMHWYCLNTNTHGCRRIVVSRGRLRRLLWIAFTLTAVALIIWQCALLVFSFYTVSVSIKVHFQKLDFPAVTICNINPYKYSAVSDLLTDLDSETKQALLSLYGVKDVLDSTPRKRREAGSMRSTWEGTPPRFLNLIPLLVFNENEKGKARDFFTGRKRKISGKIIHKASNVMHVHESKKLVGFQLCSNDTSDCATYTFSSGINAIQEWYKLHYMNIMAQVPLEKKINMSYSAEELLVTCFFDGMSCDARNFTLFHHPMYGNCYTFNNRENATILSTSMGGSEYGLQVILYINEDEYNPFLVSSTGAKVLVHQQNEYPFIEDVGTEIETAMSTSIGMHLTESFKLSEPYSQCTEDGSDVPVTNIYNAAYSLQICLYSCFQTKMVEKCGCAQYSQPLPPAANYCNYQQHPNWMYCYYQLYQAFVREELGCQSVCKQSCSFKEWTLTTSLAQWPSEASEKWLLNVLTWDQSQQINKKLNKTDLAKLLIFYKDLNQRSIMESPANSIEMLLSNFGGQLGLWMSCSVVCVIEIIEVFFIDFFSIIARRQWQKAKDWWARRRTPPSTETPSSQQGQDNPALDTDDDLPTFTSAMRLPPAPEAPVPGTPPPRYNTLRLDSAFSSQLTDTQLTNEF
notes: epithelial sodium channel (ENaC) gamma subunit, full-length clone in pACT; source: COS-7, transiently transfected, mammalian two-hybrid fusion

— paper PMC5482882, “Aldosterone Modulates the Association between NCC and ENaC” (Scientific Reports, 2017)
